The experiment deals with purified SARS-CoV-2 RBD (limits of the construct not stated) (SARS-CoV-2, UniProt P0DTC2 331-550). Briefly: told in the legend of the ELISA figure (Fig. 38). For orientation: ELISA stands for enzyme-linked immunosorbent assay.

B1: S309-14 (S309 with VH W105F mutation) (antibody, V domains shown)
VH: not shown
VL: EIVLTQSPGTLSLSPGERATLSCRASQTVSSTSLAWYQQKPGQAPRLLIYGASSRATGIPDRFSGSGSGTDFTLTISRLEPEDFAVYYCQQHDTSLTFGGGTKVEIK
In the case of B1, the binding result is recorded as “binds”.

The values above are taken from CN116745314A (VIR BIOTECHNOLOGY CO LTD, dated 2023).
